Test results reported in patent publication CN105131113A (ATTOBIO BIOPHARMACEUTICAL SUZHOU CO LTD, dated 2015).

Experiments:
细胞内源的HPV16E7蛋白 = target: T1, 细胞内源的HPV16E7蛋白 (HPV16, UniProt P03129 2-98); experiment: immunocytochemistry on fixed, permeabilised CaSki cells (C-33A as negative control)
T1 construct: Endogenous, intracellular HPV16 E7 in fixed and permeabilised CaSki cells (ICC) or in formalin-fixed paraffin sections of cervical tissue (IHC); as printed it has no initial Met; also called 宫颈癌细胞株CaSki表达的HPV16E7蛋白; 宫颈癌组织中的HPV16E7蛋白
T1 sequence: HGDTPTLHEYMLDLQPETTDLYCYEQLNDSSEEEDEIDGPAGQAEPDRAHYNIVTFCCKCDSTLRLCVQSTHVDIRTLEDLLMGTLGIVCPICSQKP

多肽HPV16E7-27 = target: T2, 多肽HPV16E7-27 (HPV16); experiment: ELISA, peptide coated at 2μg/ml
T2 construct: Peptide of HPV16 E7
T2 peptide: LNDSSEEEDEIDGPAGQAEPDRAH

多肽HPV16E7-1 = target: T3, 多肽HPV16E7-1 (HPV16); experiment: ELISA, peptide coated at 2μg/ml
T3 construct: Peptide of HPV16 E7
T3 peptide: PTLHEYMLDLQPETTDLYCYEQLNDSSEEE

多肽His-Vac = target: T4, 多肽His-Vac (HPV16); experiment: ELISA, peptide coated at 2μg/ml
T4 peptide: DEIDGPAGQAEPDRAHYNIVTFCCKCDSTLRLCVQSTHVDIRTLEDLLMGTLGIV

多肽HPV16E7-5 = target: T5, 多肽HPV16E7-5 (HPV16); experiment: ELISA, peptide coated at 2μg/ml
T5 construct: Peptide of HPV16 E7
T5 peptide: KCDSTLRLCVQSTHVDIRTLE

重组蛋白His-HPV16E7 = target: T6, 重组蛋白His-HPV16E7 (HPV16, UniProt P03129 2-98); experiment: indirect ELISA, antigen coated at 0.5μg/ml, antibody 0.1μg/ml
T6 construct: also called His-HPV16E7融合蛋白; His-HPV16E7重组蛋白; not shown: His tag
T6 sequence: T1 sequence

His-HPV18E7融合蛋白 = target: T7, His-HPV18E7融合蛋白 (HPV18, UniProt P06788 1-105); experiment: as above
T7 construct: not shown: His tag
T7 chain: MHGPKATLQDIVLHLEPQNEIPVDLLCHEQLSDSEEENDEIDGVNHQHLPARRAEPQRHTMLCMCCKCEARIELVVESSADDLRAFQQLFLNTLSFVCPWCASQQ

B1: 兔源单克隆抗体RAB-034 (antibody, V domains shown)
VH: QSLEESGGRLVTPGTPLTLTCTVSGIDLSSYAMGWVRQAPGEGLDWIGSIGSSGRTYYANWAKGRFTISKTSSTTVDLKMTSLTTEDTATYFCARGVVNRSDIWGPGTLVTVSS
VL: DPMLTQTASSVSAAVGGTVTISCQSSQSVYDNNWLGWYQQKPGQPPKLLIYGASNLESGVPSRFKGSGSGTQFTLTISDVQCDDAATYYCAGGYSGNRYVFGGGTEVVVK
notes: also called 抗HPV16E7兔单抗RAB-034
- binding result (细胞内源的HPV16E7蛋白): binds
- binding result (多肽HPV16E7-27): no binding (tested: 1μg/ml)
- binding result (多肽HPV16E7-1): no binding (tested: 1μg/ml)
- binding result (多肽His-Vac): no binding (tested: 1μg/ml)
- binding result (多肽HPV16E7-5): no binding (tested: 1μg/ml)
- binding result (重组蛋白His-HPV16E7): binds
- binding result (His-HPV18E7融合蛋白): binds
